Assay results: US12559749B2, “Methods of rescuing stop codons via genetic reassignment with ACE-tRNA” (UNIVERSITY OF IOWA RESEARCH FOUNDATION, priority 2017, dated 2026)

Experiments:
NanoLuc-TGA, TAA or TAG = assay type: cell-based, human; conditions: transiently transfected HEK293 cells; listed as Glychr19.t2
[1] = tested on: native stop codons (TAA, TAG, TGA), 3′UTR ribosome density; experiment: Ribosome footprint profiling of transcriptome-wide 3′UTRs, HEK293 cells; assay type: cell-based, human
From the text: The question was raised whether ACE-tRNAs that show efficacious suppression of premature stop codons may also induce global readthrough of native stop codons. To address this potential “off target” suppression, a transcriptome-wide quantitative profile of actively engaged ribosomes on all cellular transcripts was obtained by generating libraries of ribosome footprints from HEK293 cells expressing exogenous ACE-tRNAs or a control mock plasmid (puc57GG). Streptomycin was removed from the growth media to prevent readthrough artifacts. For comparison, the ribosome footprint library was also generated from cells in the presence or absence of G418 (150 μM, 48 h). […] Only transcripts with a minimum threshold of 5 RPKM in the coding sequence and 0.5 RPKM in the 3′UTR in two replicate libraries were included for the quantitation comparison (254 transcripts in G418 and 495-748 transcripts in ACE-tRNAs). […] ACE-tRNAs examined here had no detectable change of 3′UTR ribosome density with the exception of ACE-tRNA Gln-UAA and Arg-UGA which induced approximately a 2-fold increase in 3′UTR ribosome density for the cognate stop codon complimentary to the ACE-tRNA anticodon. Understanding the biological significance of 2-fold readthrough of protein stops will require further study, but this effect is substantially lower compared to the 100- to 1000-fold suppression of PTC for the same ACE-tRNA.
Multiple in-frame stop codons are frequently found at the end of genes 37-39 and may cause a minor difference in overall 3′UTR ribosome density for ACE-tRNA and G418 treatment. Ribosome occupancy was examined at each nucleotide in the 3′UTR within a 60 nt region downstream of the stop codons. […] Reads were normalized per total million-mapped reads, compared against control cells, and reported as a log 2-fold change as in panel A. More than 5,200 transcripts were mapped to at least 1 footprint in the region of interest. […] Taken together, the ribosome profiling data argue that efficiency of native stop codon suppression by ACE-tRNAs is generally low, and markedly less than the level of PTC suppression.
Ribosome Footprint Profiling Library preparation. HEK293 cells transiently transfected with ACE-tRNAs and control plasmid (puc57GG) were grown in standard grown media in the absence of Pen-Strep for 48 h. Libraries were prepared as described^55, with a few modifications. Briefly, cells were rapidly cooled by addition of ice-cold PBS, lysed in lysis buffer (20 mM Tris-HCl/pH7.4, 150 mM NaCl, 5 mM MgCl2, 1 mM DTT, 1% (v/v) Triton X-100, and 25 U ml^−1 Turbo DNase I) for 10 min on ice, and triturated with ten times through a 26-G needle. […]

B1: Glychr19.trna2: top performing glycine ACE-tRNA UGA, SEQ ID NO: 53 (nucleic acid)
chain: GCGUUGGUGGUAUAGUGGUUAGCAUAGCUGCCUUCAAAGCAGUUGACCCGGGUUCGAUUCCCGGCCAACGCA
modifications: chemistry not given here
B1 was tested, and the “stop codon selectivity (UGA over UAA and UAG)” value (NanoLuc-TGA, TAA or TAG) was “selectively suppresses the UGA stop codon”, the “readthrough of native stop codons / effect on global translation termination” value ([1]; discussion of profiling data) was “no significant effect on global translation termination” and the “ribosome occupancy in the early region of 3′UTR downstream of stop codons” value ([1]; per nucleotide, -35 to +65 nt) was “no observable change of ribosome occupancy”.
